According to publication PMC3805332, “Synthesis of α-Glucan in Mycobacteria Involves a Hetero-octameric Complex of Trehalose Synthase TreS and Maltokinase Pep2” (ACS Chemical Biology, 2013):
Like-named read-outs stand apart in the source and are kept apart here.

Legend:
[1] = biological target: M. tuberculosis trehalose synthase TreS (M. tuberculosis H37Rv) (UniProt P9WQ19); assay: AUC
[2] = biological target: M. tuberculosis trehalose synthase TreS (M. tuberculosis H37Rv) (UniProt P9WQ19); assay: AUC; remark: listed apart in the source

M. tuberculosis trehalose synthase TreS (M. tuberculosis H37Rv), sequence (P9WQ19 whole entry): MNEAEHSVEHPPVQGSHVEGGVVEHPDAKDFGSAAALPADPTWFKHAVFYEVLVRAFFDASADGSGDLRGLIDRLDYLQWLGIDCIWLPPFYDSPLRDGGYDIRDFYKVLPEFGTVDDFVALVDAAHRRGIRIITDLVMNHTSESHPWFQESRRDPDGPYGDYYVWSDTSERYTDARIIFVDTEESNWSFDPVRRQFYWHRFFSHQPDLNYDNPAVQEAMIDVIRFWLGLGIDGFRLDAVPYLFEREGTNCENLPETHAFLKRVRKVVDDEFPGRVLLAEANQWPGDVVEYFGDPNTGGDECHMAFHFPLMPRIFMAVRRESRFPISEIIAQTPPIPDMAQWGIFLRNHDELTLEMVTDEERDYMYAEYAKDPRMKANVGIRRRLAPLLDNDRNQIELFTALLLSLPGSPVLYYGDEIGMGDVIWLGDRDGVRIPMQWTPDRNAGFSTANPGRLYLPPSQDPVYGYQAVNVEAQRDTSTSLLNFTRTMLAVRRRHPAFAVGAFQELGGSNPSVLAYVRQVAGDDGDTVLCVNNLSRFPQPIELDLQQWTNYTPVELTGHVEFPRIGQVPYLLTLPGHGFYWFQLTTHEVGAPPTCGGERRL

Substance: M. tuberculosis maltokinase Pep2 (from UniProt O07177 1-455) (enzyme)
- stoichiometry N (Pep2 subunits per TreS tetramer) [1]: 2
- stoichiometry N (Pep2 subunits per TreS tetramer) [2]: 4
